B1: TRL832 (antibody, V domains shown)
VH: QVQLVESGPGLMKPSETLSLTCTVSGGSVSNYYWSWIRQPPGKGLEWIGYVFYSGSSNYNPSLNNPSLKSRVTISIDTSNNQFSLKLSSVTAADTAVYYCARGRVNSGYDWGPNFDSWGQGALVTVSS
VL: DIVLTQAPSVSVSPGQTASITCSGDRLGEKFASWYQQKPGQSPVLVIYEDSKRPSGIPDRFSGSNSGNTATLTISGTQIMDEGDFFCQAWDSSTVVFGGGTKLTVLG
B2: TRL053 (antibody, V domains shown)
VH: QVQLVQSGAEVRKPGSSVKVSCKVSGGIIRKYAINWVRQAPGQGLEWMGGIIAIFNTANYAQKFQGRVTITADESTSTVYMELSSLRSEDTALYYCARGMNYYSDYFDYWGQGSLVTVSP
VL: EIVLTQSPGTLSLSPGERATLSCRASQSVRSNNLAWYQHKPGQAPRLLIFGASSRATGIPDRFSGSGSGTDFTLTISRLEPEDFAVYYCQQYGSSPALTFGGGTKVEIKR
B3: TRL835 (antibody, V domains shown)
VH: QVQLVQSGAEVRKPGESLRISCRGSGYNFPKYWIGWVRQMPGKGLEWMGMIYPGDSDVRYNPSFQGQVTISADESINTAYLQWSSLRTSDTARYYCARHLGQQLVSNTYYYYGMDVWGQGTTVTVSS
VL: DIVLTQSPLSLPVTPGEPASISCRSSQSLLDSNGYNYLDWYLQKPGQSPQLLIYLASYRAPGVPDRFSGSGSGTDFTLKISRVEAEDVGLYYCMQALQTPPMYTFGQGTKLEIKR
B4: TRL833 (antibody, V domains shown)
VH: QVQLLESGPGLVKPSQTLLLTCTVSGASISTGGNYWSWIRQHPGKDLEWIGYIFYSGTTKYNPSVDNPSLKSRVTMSVDTSENQFSLKLSSVTAADTAVYFCARGSPNSGYDWGPHFDYWGQGTLVTVSS
VL: DIELTQSPSVSVSPGQTASITCSGDKLGDKFVCWYQQKAGQSPIVVIYQDDKRPSGIPERFSGSNSGNTATLTISGTQAMDEADYFCQAWDSTTVVFGGGTKLTVLG
B5: TRL579 (antibody, V domains shown)
VH: QVQLVQSGAEVKKPGASVKVSCKTSGYTFTAYTIHWVRQAPGQRLEWMGWINAGNGHTKYSQRFKGRVTITRDTSARTTYMELRSLTSEDTALYFCARGPETYYYDKTNWLNSHPDEYFQHWGHGTQVTVSS
VL: DIQMTQSPSTLSASVGDRVTITCRASQTINNYLAWYQQKPGKAPKLLIYKASSLESGVPSRFSGSGSGTEFTLTISSLQPDDFATYYCQEYNNDSPLTFGGGTKVEIKR
B6: TRL837 (antibody, V domains shown)
VH: QVQLVQSGAEVKKPGSSVTVSCKTSGHTFISYAISWLRQAPGQGLEWMGGIVPIFGTVNYTQKFQGRLTITADESTSTAYMDLSRLTFEDTAIYFCAREAGYHSSFSGVYFDYWGQGTLLTVSS
VL: DIVMTQSPGTLSLSPGERATLYCRASQSVRSGYLAWYQHKPGQAPLLLFYDASGRATGIPDRFSGSGSGTDFTLTISRLEPEDFAVYYCLQYGSSPRTFGQGTKVEIKR
B7: TRL856 (antibody, V domains shown)
VH: QVQLVESGGGLVQPGGSLRLSCAASGFTFSDYWMVWVRQAPGKGLVWVSRISSDGSTTSYADSVKGPFTISRDNAKNTLYLQMNSLRAEDTAVYYCARVATPYYYESGFDYWGQGALVTVSS
VL: DIVLTQSPSVSVAPGQTARITCGGNDIGSKSVHWYQQKPGQAPVLVVFDDRDRPSGIPERFSGSNSGNTATLTISRVEAGDEADYYCQVWDITSDLVVFGGGTKLTVVG
B8: TRL823 (antibody, V domains shown)
VH: QVQLVESGGGVVQPGGSLRLSCAASGFNFDEYVMYWVRQSPGKGLEWVSLIGADGRGTYNSDSVKGRFTISRDNRKNSLYLQMNSLRSDDTALYYCAKVERSFYDGSGYGDALEIWGQGTMVTVSS
VL: DIVMTQSPSSLSASVGDRVSITCRASQTITRFLNWYQQKPGKGPKLLIYAASTVHRGVPSRFSGSGSGTDFTLTISSLQPEDFATYYCQQSYSAPFTFGPGTTVDIRR
B9: TRL847 (antibody, V domains shown)
VH: QVQLVESGGGLVQPGGSLRLSCVASGFTFSRFSMNWVRQAPGMGLEWVSYISDTGRTIYYADSVKGRFTISRDNDKNTLYLQMKSLRDEDSAFYYCARDPDTPFVRAFDSWGQGVLVTVSS
VL: DIVMTQSPSFLSASVGDRVTITCRTSQVISSYLAWYQQRPGKAPKLLIYAASTLQSGVPSRFSGSGSGTRFSLTISNLQPEDFATYFCQQLTTYPPITFGQGTRLEIKR
B10: TRL813 (antibody, V domains shown)
VH: QVQLVESGGGLVQPGGSLRLSCAASGFIFGDFAIHWVRQASGKGLEWVARIRSGLNRFETAYAASVEGRLTISRDDSKSMAYLQMNNVKAEDTAVYLCTYLVGAVGFQHWGQGTLVTVSS
VL: DIVMTQSPSTLSASVGDRVTITCRASQTIYRWLAWYQQKPGKAPKVLIYKASTLESGVPSRFSGSGSGTEFTLAISSLQPDDFATYYCQQYNSFPYRFGQGTKVEIKR
B11: TRL845 (antibody, V domains shown)
VH: QVQLVQSGGDLVQPGGSLRLSCAASGFTFSRYSMNWVRQAPGMGLEWVAYISDTSRTIYYADSVKGRFTISRDNAKNSLYLQMKSLRDEDTAVYYCARDPDTPFVRAFDSWGQGTLVTVSS
VL: DIVLTQSPSFLSASVGDRVTITCRASQLISSYFAWYQQKPGKPPKLLIYAASTLQSGVPSRFSGSGSGTQFSLTISSLQPEDFATYYCQQLNSYPPITFGQGTRLEIKR
B12: TRL784 (antibody, V domains shown)
VH: QVQLVQSGPELKKPGSSVKLSCMATGGTFINYAFSWVRQAPGQGLEWLGGIIPVYGTSNHVEKLQGRVTITADASTNTAYMELSGLRFDDTAVYFCAASTATSGTYYAMRPFDFWGQGTLVSVSS
VL: DIELTQDPSVSVAPGQTARIPCVRFNMGPTSVHWYQQKPGQAPVLVVYDDSDRPSGIPERFSGSNSGDSATLTISRVEAGDEADYYCQVWDMSSDRRVFGGGTTLTVLG
B13: TRL854 (antibody, V domains shown)
VH: QVQLVESGAEVKKPGASVRVSCKGSGYTFTAYHMHWVRQAPGQGFEWVGWINPNSGATYYTSTFEGRVTMTRDTSITTAYMELSSLRSDDTAVYYCATDIVVERDASLGGFNSYGMDVWGQGTTVTVSS
VL: DIEMTQSPLSLPVTPGEPASISCRSSQSLLHSNGYNHLAWYLQKPGRSPHLLIYLASTRASGVPDRFSGSGSGTDFTLKISRVEAEDVGIYYCMQSLQTSITFGQGTRLEIKR

Assays:
[1] = target: recombinant HA of influenza A H1 A/California/09 (influenza A virus H1 A/California/09); experiment: recombinant HA ELISA (AttoPhos fluorescence, mean of triplicates)
[2] = target: recombinant HA of influenza A H3 A/Sydney/97 (influenza A virus H3 A/Sydney/97); experiment: as above
[3] = target: H5 Vietnam/1203/2004 HA trimer (influenza A virus H5 Vietnam/1203/2004); experiment: kinetic binding to HA trimer (instrument not stated)
[4] = target: H5 Vietnam/1194/2004 HA monomer (influenza A virus H5 Vietnam/1194/2004); experiment: kinetic binding to HA monomer (instrument not stated)
[5] = target: H7 Netherlands/219/03 HA monomer (influenza A virus H7 Netherlands/219/03); experiment: as above
[6] = target: H9 HongKong/1073/99 HA monomer (influenza A virus H9 HongKong/1073/99); experiment: as above
[7] = target: hemagglutinin (HA) of influenza B virus B/Florida (Yamagata lineage) (influenza B virus B/Florida/06 (Yamagata clade)); experiment: ForteBio Octet; antigen on the sensor, varying antibody concentrations
[8] = target: hemagglutinin (HA) of influenza B virus B/Malaysia (Victoria lineage) (influenza B virus B/Malaysia/04 (Victoria clade)); experiment: as above
[9] = target: H7 Netherlands/219/03 HA trimer (influenza A virus H7 Netherlands/219/03); experiment: kinetic binding to HA trimer (instrument not stated)
[10] = target: H3 Perth/16/2009 HA monomer (influenza A virus H3 Perth/16/2009); experiment: kinetic binding to HA monomer (instrument not stated)

Binder | fold reactivity over background (fold over background) [1] | fold reactivity over background (fold over background) [2] | Kd [7] [nM] | Kd [8] [nM] | further results
B1 | 1.1 | 1.1 | – | – | –
B2 | 25.6 | 1 | – | – | Kd [3]: 0.5 nM; koff [3]: 4.5e-05 s⁻¹; kon [3]: 92000 M⁻¹ s⁻¹; Kd [4]: 0.5 nM; koff [4]: 1.9e-05 s⁻¹; kon [4]: 38000 M⁻¹ s⁻¹; Kd [5]: 1.2 nM; koff [5]: 6.7e-05 s⁻¹; kon [5]: 55000 M⁻¹ s⁻¹; Kd [6]: 0.2 nM; koff [6]: 1.6e-05 s⁻¹; kon [6]: 98000 M⁻¹ s⁻¹
B3 | – | – | 0.6 | 2.3 | –
B4 | – | – | 2.9 | 0.2 | –
B5 | 1 | 25.6 | – | – | Kd [9]: 0.4 nM; koff [9]: 4e-05 s⁻¹; kon [9]: 100000 M⁻¹ s⁻¹; Kd [10]: 3.9 nM; koff [10]: 0.00064 s⁻¹; kon [10]: 170000 M⁻¹ s⁻¹
B6 | – | – | 0.3 | 1 | –
B7 | 1.2 | 1.3 | – | – | –
B8 | – | – | 2 | 0.3 | –
B9 | 1.1 | 1 | – | – | –
B10 | 1.6 | 1.1 | – | – | –
B11 | 1.4 | 1.1 | – | – | –
B12 | – | – | 0.7 | 7 | –
B13 | 1.2 | 1.3 | – | – | –
